Assays:
[1] = system: T1, O=[N+]([O-])c1ccc(O[C@@H]2O[C@H](CO)[C@@H](O)[C@H](O)[C@H]2O)cc1; test: purified protein; type: biochemical, Talaromyces amestolkiae; details: sodium acetate 100 mM pH 4.0, 70 °C (standard reaction), 0.1% BSA
T1 construct: native enzyme secreted by T. amestolkiae, purified from culture (Mandels medium, glucose); signal peptide removed; glycosylated; gene codes for 857 aa; non-covalent dimer about 222 kDa; mature N-terminus YSPPAYP deduced from the cloning primer

[2] = system: O=[N+]([O-])c1ccccc1O[C@@H]1O[C@H](CO)[C@@H](O)[C@H](O)[C@H]1O; test: purified protein; details: sodium acetate 100 mM pH 4.0, 70 °C (standard reaction), 0.1% BSA
[3] = target: β-glucosidase BGL-3 from Talaromyces amestolkiae (native enzyme) (Talaromyces amestolkiae); test: SEC; Superose 12 column; native purified BGL-3; mass around 222 kDa against 107.0 kDa for the monomer by MALDI-TOF

BGL-3 (β-glucosidase g377) (Talaromyces amestolkiae)
Km [1]: 140 ± 100 µM | Vmax [1]: 381 µmol/min/mg | kcat [1]: 1360 s⁻¹ | kcat/Km [1]: 9.71e+06 M⁻¹ s⁻¹ | Km [2]: 140 ± 100 µM | Vmax [2]: 142 µmol/min/mg | kcat [2]: 507 s⁻¹ | kcat/Km [2]: 3.43e+06 M⁻¹ s⁻¹

β-glucosidase BGL-3 from Talaromyces amestolkiae (native enzyme)
stoichiometry N [3]: 2

Reference: publication PMC5921417, “The β-glucosidase secreted by Talaromyces amestolkiae under carbon starvation: a versatile catalyst for biofuel production from plant and algal biomass” (Biotechnology for Biofuels, 2018)
